{
  "source": "patent US10870691B2",
  "about": "“Antibodies and fragments thereof that bind hepatitis B virus protein X” (priority 2018, dated 2020)",
  "key": {"[1]": {"assay": "Mouse immunization with peptide-BSA conjugate", "format": "in vivo", "details": "10 μg peptide-BSA conjugate plus 1 μg adjuvant, biweekly injections, CD-1 mice", "procedure": "(§3) Two of these HBx peptides were individually conjugated to BSA and three NZB/W, three CD-1, and three BALB/c mice were immunized with 10 μg peptide-BSA conjugate plus 1 μg adjuvant (ALD and MDP in a 1:1 ratio). Biweekly injections were performed using a “rapid” immunization protocol developed by Antibody Solutions. […] The top 50 candidates were further evaluated by confocal imaging of HBV-infected PHH."}, "HBV": {"system": "HBV", "assay": "Extracellular HBV DNA quantification (qPCR) in HBV-infected PHH", "format": "cell-based, HBV genotype D in primary human hepatocytes", "details": "siRNA 25 nM transfected or ETV treatment from day 6 post-infection (FIGS. 8A, 9A, 10A)", "description": "PHH were infected with HBV or HBVΔX (1000 genomic equivalents/cell) or transduced with lentiviruses as described previously (Niu, et al., PLoS One (2017) 12:e0169648).\n(§1) siRNA transfections were performed using Lipofectamine RNAiMax.\nExtracellular HBeAg and HBV DNA were measured as previously described (Niu, et al., PLoS One (2017) 12:e0169648, 29). HBeAg levels were measured by enzyme-linked immunosorbent assay or electrochemiluminescence assay (Meso Scale Discovery, Rockville, Md.). Extracellular HBV DNA was purified from cell-culture medium using a DNeasy 96 Blood & Tissue Kit (Qiagen) and quantified by qPCR on a QuantStudio 7 Flex Real-Time PCR System (ThermoFisher Scientific) using primers and a probe designed to the HBx region of the HBV genome; forward primer: 5′-CCGTCTGTGCCTTCTCATCTG-3′; reverse primer: 5′-AGT CCA AGA GTY CTC TTA TGY AAG ACC TT-3′; probe: 5′/56-FAM/CCG TGT GCA/ZEN/CTT CGC TTC ACC TCT GC/3IABkFQ/3′. HBV DNA levels were normalized to β-actin."}, "HBx [2]": {"system": "HBx", "details": "HBV-infected PHH, confocal microscopy (FIGS. 8B, 9B, 10B)"}, "Smc6": {"system": "Smc6", "assay": "Confocal microscopy of Smc6 in HBV-infected PHH after treatment", "format": "cell-based, human", "details": "confocal microscopy (FIGS. 8B, 10B)", "description": "as §1"}, "HBx69-87 peptide": {"molecular_target": "HBx69-87 peptide (Hepatitis B virus genotype D subtype ayw, UniProt P03165)", "details": "100 ng/mL antibody, varying concentrations of HBx peptide", "description": "(§2) Antibody candidates were screened by ELISA. Briefly, sulfhydryl plates were coated with 36 ng/mL recombinant HBx-DDB1 fusion protein, blocked and then incubated with 50 μL of undiluted hybridoma supernatant. Signal was detected colorimetrically with a goat anti-mouse-HRP antibody (Jackson Immuno Research, West Grove, Pa.) and incubation with TMB substrate solution (MossBio, Pasadena, Mass.). Signal strength was measured as absorbance at 450 nm. ELISA profiling of mAbs was performed using 100 ng/mL antibody with varying concentrations of recombinant HBx-DDB1 fusion protein or HBx peptide."}, "HBx27-50 peptide": {"molecular_target": "HBx27-50 peptide (Hepatitis B virus genotype D subtype ayw, UniProt P03165)", "details": "100 ng/mL antibody, varying concentrations of HBx peptide", "description": "as §2"}, "[3]": {"system": "recombinant HBx-DDB1 fusion protein", "assay": "HBx ELISA, binding to recombinant HBx-DDB1 fusion protein", "parameters": "species or system HBV", "details": "100 ng/mL antibody, varying concentrations of fusion protein", "description": "Mouse monoclonal anti-HBx antibodies were developed by Antibody Solutions (Sunnyvale, Calif.). Antibody candidates were screened by enzyme-linked immunosorbent assay (ELISA) using recombinant HBx-DDB1 fusion protein and then by confocal microscopy on HBV infected PHH.\nAntibody candidates were screened by ELISA. […] Signal strength was measured as absorbance at 450 nm."}, "HBx [4]": {"system": "HBx", "details": "for detection of HBx by Western blot in PHH transduced with Myc-HBx lentivirus: Myc-tagged HBx genotype D, lysates day 3 post-transduction; for HBx genotype recognized by Western blot: PHH transduced with lentiviruses expressing HBx genotype A-E; for detection of HBx by Western blot in HBV-infected PHH: lysates day 4 post-infection", "description": "For Western blotting experiments, PHH were transduced with Myc-HBx-expressing lentivirus or were infected with wild-type HBV, HBx-negative HBV (HBVΔX), or were mock-infected.\nWestern blotting was performed as previously described (Decorsière, et al., Nature (2016) 531:386-389). Briefly, PHH were transduced with a lentivirus expressing 3xMyc-HBx (HBV genotype A, B, C, D or E) or infected with wild-type HBV, HBVΔX, or mock-infected. On the indicated day post-transduction or post-infection, lysates were collected by adding 0.25 mL 1× cell lysis buffer (Cell Signaling) combined with protease inhibitor cocktail (ThermoFisher Scientific) and scraping to remove the cells from the plates. Membranes were probed with 1:250 diluted mouse monoclonal anti-Smc6 (Abgent), 1:1000 diluted mouse monoclonal c-Myc (LifeSpan Biosciences), 1:250 diluted mouse monoclonal anti-HBx mAb (15 μg/mL final concentration), and 1:2000 diluted rabbit monoclonal anti-GAPDH (Cell Signaling). IRDye 680RD goat anti-rabbit or IRDye 800CW goat anti-mouse IgG (LI-COR, Lincoln, Nebr.) at a 1:5000 dilution were used as secondary antibodies. Blots were visualized using an Odyssey Infrared Imaging System (LI-COR)."}, "HBx [5]": {"molecular_target": "HBx (Hepatitis B virus genotype D subtype ayw, UniProt P03165)", "sequence (P03165 whole entry)": "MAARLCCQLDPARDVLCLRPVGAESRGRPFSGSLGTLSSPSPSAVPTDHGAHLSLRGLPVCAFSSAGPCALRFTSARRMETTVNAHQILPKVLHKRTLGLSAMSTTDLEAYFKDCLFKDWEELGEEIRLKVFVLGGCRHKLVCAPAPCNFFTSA", "details": "top 50 candidates, HBV-infected PHH", "procedure": "as §3"}},
  "note": "Like-named read-outs stand apart in the source and are kept apart here. Ends that are not written are not given here.",
  "data": [
    {"molecule": "HBx27-50: HBx AD38 (genotype D) residue 27-50 peptide, conjugated to BSA for immunization (GRPFSGSLGTLSSPSPSAVPTDHG; also: conjugated to BSA)", "values": [
      {"measurement": "immunogenicity of peptide-BSA conjugate", "setting": "[1]", "result": "immunogenic"}
    ]},
    {"molecule": "C=C1[C@H](CO)[C@@H](O)C[C@@H]1n1cnc2c(=O)[nH]c(N)nc21", "note": "[ETV, entecavir]", "values": [
      {"measurement": "extracellular HBV DNA levels", "setting": "HBV", "result": "significantly reduced"},
      {"measurement": "change in percentage of HBx-positive cells", "setting": "HBx [2]", "result": "Neither ETV nor siCtrl significantly reduced"},
      {"measurement": "change in percentage of Smc6-positive cells", "setting": "Smc6", "result": "Neither ETV nor siCtrl significantly reduced the percentage of HBx-positive cells or increased the percentage of Smc6-positive cells"}
    ]},
    {"molecule": "HBx M19: mouse monoclonal antibody against HBx; heavy chain SEQ ID NO: 27, light chain SEQ ID NO: 30 (Table 1) (antibody) heavy: EVQLQQSGPELVKPGASVKISCQASGYTFTDYYMNWVKQSHGKRLEWIGDINPNNGGTAYNQKFKGKATLTVDRSSSTAYMEVRSLTSEDSAVYFCALLAYWGQGTLVTVSAAKTTPPSVYPLAPGSAAQTNSMVTLGCLVKGYFPEPVTVTWNSGSLSSGVHTFPAVLQSDLYTLSSSVTVPSSTWPSQTVTCNVAHPASSTKVDKKIVPRDCGCKPCICTVPEVSSVFIFPPKPKDVLTITLTPKVTCVVVDISKDDPEVQFSWFVDDVEVHTAQTKPREEQINSTFRSVSELPIMHQDWLNGKEFKCRVNSAAFPAPIEKTISKTKGRPKAPQVYTIPPPKEQMAKDKVSLTCMITNFFPEDITVEWQWNGQPAENYKNTQPIMDTDGSYFVYSKLNVQKSNWEAGNTFTCSVLHEGLHNHHTEKSLSHSPGK light: DVVMTQTPLSLPVSLGDQASISCRSSQSLVYSDGNTHLHWYLQKTGQSPKLLIYKASNRFSGVPDRFSGSGSGTDFTLKISRVEAEDLGVYFCSQSTHVPLTFGAGTKLELKRADAAPTVSIFPPSSEQLTSGGASVVCFLNNFYPKDINVKWKIDGSERQNGVLNSWTDQDSKDSTYSMSSTLTLTKDEYERHNSYTCEATHKTSTSPIVKSFNRGEC", "values": [
      {"measurement": "binding to HBx69-87 control peptide by ELISA", "setting": "HBx69-87 peptide", "result": "did not bind"},
      {"measurement": "binding to HBx27-50 peptide by ELISA", "setting": "HBx27-50 peptide", "result": "potently bound"},
      {"measurement": "binding to recombinant HBx-DDB1 fusion protein by ELISA", "setting": "[3]", "result": "bound"},
      {"measurement": "detection of HBx by Western blot in PHH transduced with Myc-HBx lentivirus", "setting": "HBx [4]; listed as HBx mAb", "result": "detected a 17 kDa protein"},
      {"measurement": "detection of HBx by Western blot in PHH transduced with Myc-HBx lentivirus", "setting": "HBx [4]; listed as αHBx mAb", "result": "detected"},
      {"measurement": "HBx genotype recognized by Western blot", "setting": "HBx [4]; listed as HBx mAb", "result": "primarily recognizes genotype D HBx"},
      {"measurement": "HBx genotype recognized by Western blot", "setting": "HBx [4]; listed as anti-HBx mAb", "result": "selective for genotype D HBx"},
      {"measurement": "sensitivity in Western blot analysis versus the other mAb", "setting": "HBx [4]; lentivirus-expressed HBx in PHH", "result": "superior sensitivity"},
      {"measurement": "detection of HBx by Western blot in HBV-infected PHH", "setting": "HBx [4]; listed as HBx mAb", "result": "detects a 17 kDa band"},
      {"measurement": "detection of HBx by Western blot in HBV-infected PHH", "setting": "HBx [4]; listed as anti-HBx mAb", "result": "able to detect physiologically relevant levels of HBx protein"},
      {"measurement": "detection of HBx by Western blot in HBV-infected PHH", "setting": "HBx [4]; listed as αHBx mAb", "result": "detected"},
      {"measurement": "selectivity and sensitivity of hybridoma clones by confocal imaging", "setting": "HBx [5]", "result": "most selective and sensitive"}
    ]}
  ]
}
